Experiment [1] concerns the target T1, Recombinant Human IL-13 (human, UniProt P35225 35-146, limits assumed). Briefly: cell-based or functional assay.
The target in experiment [2] is T2, Recombinant Human IL-17 (human, UniProt Q16552 20-155, limits assumed).
T2 sequence (looked up): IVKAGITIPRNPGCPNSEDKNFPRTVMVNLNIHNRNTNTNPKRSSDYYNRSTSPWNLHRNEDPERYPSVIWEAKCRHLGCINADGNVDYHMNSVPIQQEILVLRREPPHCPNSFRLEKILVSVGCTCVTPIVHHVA
Nature of the experiment: cell-based or functional assay.

Experiment [3] has as its target T1, Recombinant Human IL-13. Briefly: SPR (Biacore). As for the experimental part: (§1) The BIACORE assay (Biacore, Inc, Piscataway, N.J.) determined the affinity of antibodies or DVD-Ig with kinetic measurements of on-rate and off-rate constants. Binding of antibodies or DVD-Ig proteins to a target antigen (for example, a purified recombinant target antigen) was determined by surface plasmon resonance-based measurements with a Biacore®1000 or 3000 instrument (Biacore® AB, Uppsala, Sweden) using running HBS-EP (10 mM HEPES [pH 7.4], 150 mM NaCl, 3 mM EDTA, and 0.005% surfactant P20) at 25° C. All chemicals were obtained from Biacore® AB (Uppsala, Sweden) or otherwise from a different source as described in the text. For example, approximately 5000 RU of goat anti-mouse IgG, (Fcγ), fragment specific polyclonal antibody (Pierce Biotechnology Inc, Rockford, Ill.) diluted in 10 mM sodium acetate (pH 4.5) was directly immobilized across a CM5 research grade biosensor chip using a standard amine coupling kit according to manufacturer's instructions and procedures at 25 μg/ml. Unreacted moieties on the biosensor surface were blocked with ethanolamine. Modified carboxymethyl dextran surface in flowcell 2 and 4 was used as a reaction surface. Unmodified carboxymethyl dextran without goat anti-mouse IgG in flow cell 1 and 3 was used as the reference surface. For kinetic analysis, rate equations derived from the 1:1 Langmuir binding model were fitted simultaneously to association and dissociation phases of all eight injections (using global fit analysis) with the use of Biaevaluation 4.0.1 software. Purified antibodies or DVD-Ig proteins were diluted in HEPES-buffered saline for capture across goat anti-mouse IgG specific reaction surfaces. Antibodies or DVD-Ig proteins to be captured as a ligand (25 μg/ml) were injected over reaction matrices at a flow rate of 5 μl/minute. The association and dissociation rate constants, kₒₙ (M⁻¹s⁻¹) and koff (s⁻¹) were determined under a continuous flow rate of 25 μl/minute. Rate constants were derived by making kinetic binding measurements at different antigen concentrations ranging from 10-200 nM. The equilibrium dissociation constant (M) of the reaction between antibodies or DVD-Ig proteins and the target antigen was then calculated from the kinetic rate constants by the following formula: KD=koff/kₒₙ. Binding was recorded as a function of time and kinetic rate constants were calculated.
(In general: SPR reads the build-up and loss of mass on a sensor chip optically.)

Experiment [4] addresses T2, Recombinant Human IL-17. Nature of the experiment: SPR (Biacore). As for the experimental part:
as §1

T1 sequence (P35225 35-146 limits assumed): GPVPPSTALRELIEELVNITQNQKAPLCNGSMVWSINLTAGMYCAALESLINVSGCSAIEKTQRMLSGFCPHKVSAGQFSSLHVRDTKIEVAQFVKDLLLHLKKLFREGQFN

B1: DVD2153 (bispecific antibody)
VH: EVQLVQSGAEVKKPGSSVKVSCKASGYTFTDYEIHWVRQAPGQGLEWMGVNDPESGGTFYNQKFDGRVTLTADESTSTAYMELSSLRSEDTAVYYCTRYSKWDSFDGMDYWGQGTTVTVSSASTKGPSVFPLAPEVTLRESGPGLVKPTQTLTLTCTLYGFSLSTSDMGVDWIRQPPGKGLEWLAHIWWDDVKRYNPALKSRLTISKDTSKNQVVLKLTSVDPVDTATYYCARTVSSGYIYYAMDYWGQGTLVTVSS
VL: DIQMTQSPSSLSASVGDRVTITCRASSGIISYIDWFQQKPGKAPKRLIYATFDLASGVPSRFSGSGSGTDYTLTISSLQPEDFATYYCRQVGSYPETFGQGTKLEIKRTVAAPDIQMTQSPSSLSASVGDRVTISCRASQDIRNYLNWYQQKPGKAPKLLIFYTSKLHSGVPSRFSGSGSGTDYTLTISSLQPEDIATYYCQQGLTPPLTFGGGTKVEIKR
As for B1, the “C-Terminal VD IL13 Neutralization Assay IC50” value in the experiment with Recombinant Human IL-13 [1] was 2.44 nM. The “N-Terminal VD IL17 Neutralization Assay IC50” value in the experiment with Recombinant Human IL-17 [2] came out at 0.0049 nM.

B2: DVD2152 (bispecific antibody)
VH: EVTLRESGPGLVKPTQTLTLTCTLYGFSLSTSDMGVDWIRQPPGKGLEWLAHIWWDDVKRYNPALKSRLTISKDTSKNQVVLKLTSVDPVDTATYYCARTVSSGYIYYAMDYWGQGTLVTVSSASTKGPSVFPLAPEVQLVQSGAEVKKPGSSVKVSCKASGYTFTDYEIHWVRQAPGQGLEWMGVNDPESGGTFYNQKFDGRVTLTADESTSTAYMELSSLRSEDTAVYYCTRYSKWDSFDGMDYWGQGTTVTVSS
VL: DIQMTQSPSSLSASVGDRVTISCRASQDIRNYLNWYQQKPGKAPKLLIFYTSKLHSGVPSRFSGSGSGTDYTLTISSLQPEDIATYYCQQGLTPPLTFGGGTKVEIKRTVAAPDIQMTQSPSSLSASVGDRVTITCRASSGIISYIDWFQQKPGKAPKRLIYATFDLASGVPSRFSGSGSGTDYTLTISSLQPEDFATYYCRQVGSYPETFGQGTKLEIKR
As for B2, the “N-Terminal VD IL13 Neutralization Assay IC50” value in the experiment with Recombinant Human IL-13 [1] worked out at 0.112 nM. Moreover, the “C-Terminal VD IL17 Neutralization Assay IC50” value in the experiment with Recombinant Human IL-17 [2] is 0.0069 nM.

B3: DVD2193 (bispecific antibody)
VH: EVQLVQSGAEVKKPGSSVKVSCKASGGSFGGYGIGWVRQAPGQGLEWMGGITPFFGFADYAQKFQGRVTITADESTTTAYMELSGLTSDDTAVYYCARDPNEFWNGYYSTHDFDSWGQGTTVTVSSASTKGPEVQLVQSGAEVKKPGASVKVSCKASGYTFTSYWMHWVRQAPGQGLEWIGNINPKGGSNIYNEKFQGRVTMTRDTSISTAYMELSRLRSDDTAVYYCARLDYFGDSFDLWGQGTTVTVSS
VL: EIVLTQSPDFQSVTPKEKVTITCRASQDIGSELHWYQQKPDQPPKLLIKYASHSTSGVPSRFSGSGSGTDFTLTINGLEAEDAGTYYCHQTDSLPYTFGPGTKVDIKRTVAAPSVFIFPPDIQMTQSPSSLSASVGDRVTITCRASQGIRNYLNWYQQKPGKAPKLLIYYASNLEVGVPSRFSGSGSGTDYTLTISSLQPEDFATYYCQQDNRFPYTFGGGTKVEIKR
notes: DVD-Ig; also called DVD2193H; DVD2193L
In the case of B3, the “C-Terminal VD IL13 Neutralization Assay IC50” value in the experiment with Recombinant Human IL-13 [1] worked out at 0.028 nM. Moreover, in the experiment with Recombinant Human IL-13 [3], the Kd was 0.066 nM, the koff was 3.9e-05 s⁻¹ and the kon was determined as 590000 M⁻¹ s⁻¹. In addition, in the experiment with Recombinant Human IL-17 [4], the Kd was 0.012 nM, the koff is 2.2e-05 s⁻¹ and the kon turned out to be 1.9e+06 M⁻¹ s⁻¹. For the same molecule, the “N-Terminal VD IL17 Neutralization Assay IC50” value in the experiment with Recombinant Human IL-17 [2] was 0.014 nM.

B4: DVD2199 (bispecific antibody)
VH: EVQLVQSGAEVKKPGESVKISCKASGGSFRSYGISWVRQAPGQGLEWMGGITHFFGITDYAQKFQGRVTITADESTTTAYMELSGLTSDDTAVYYCAREPNDFWNGYYDTHDFDSWGQGTTVTVSSASTKGPEVQLVQSGAEVKKPGASVKVSCKASGYTFTSYWMHWVRQAPGQGLEWIGNINPKGGSNIYNEKFQGRVTMTRDTSISTAYMELSRLRSDDTAVYYCARLDYFGDSFDLWGQGTTVTVSS
VL: EIVLTQSPDFQSVTPKEKVTITCRASQNIGSELHWYQQKPDQSPKLLIKYASHSISGVPSRFSGSGSGTDFTLTINGLEAEDAATYYCHQSDTLPHTFGQGTKVDIKRTVAAPSVFIFPPDIQMTQSPSSLSASVGDRVTITCRASQGIRNYLNWYQQKPGKAPKLLIYYASNLEVGVPSRFSGSGSGTDYTLTISSLQPEDFATYYCQQDNRFPYTFGGGTKVEIKR
notes: DVD-Ig; also called DVD2199H; DVD2199L
B4: the “C-Terminal VD IL13 Neutralization Assay IC50” value with Recombinant Human IL-13 [1] stood at 0.088 nM. In the experiment with Recombinant Human IL-13 [3], the Kd worked out at 0.026 nM, the koff stood at 3.4e-05 s⁻¹ and the kon turned out to be 1.3e+06 M⁻¹ s⁻¹. Also, in the experiment with Recombinant Human IL-17 [4], the Kd stood at 0.019 nM, the koff came out at 4.4e-05 s⁻¹ and the kon worked out at 2.3e+06 M⁻¹ s⁻¹. The “N-Terminal VD IL17 Neutralization Assay IC50” value with Recombinant Human IL-17 [2] came out at 0.0102 nM.

B5: DVD2195 (bispecific antibody)
VH: EVQLVQSGAEVKKPGSSVKVSCKASGGSFGGYGIGWVRQAPGQGLEWMGGITPFFGFADYAQKFQGRVTITADESTTTAYMELSGLTSDDTAVYYCARDPNEFWNGYYSTHDFDSWGQGTTVTVSSASTKGPSVFPLAPEVQLVQSGAEVKKPGASVKVSCKASGYTFTSYWMHWVRQAPGQGLEWIGNINPKGGSNIYNEKFQGRVTMTRDTSISTAYMELSRLRSDDTAVYYCARLDYFGDSFDLWGQGTTVTVSS
VL: EIVLTQSPDFQSVTPKEKVTITCRASQDIGSELHWYQQKPDQPPKLLIKYASHSTSGVPSRFSGSGSGTDFTLTINGLEAEDAGTYYCHQTDSLPYTFGPGTKVDIKRTVAAPDIQMTQSPSSLSASVGDRVTITCRASQGIRNYLNWYQQKPGKAPKLLIYYASNLEVGVPSRFSGSGSGTDYTLTISSLQPEDFATYYCQQDNRFPYTFGGGTKVEIKR
notes: DVD-Ig; also called DVD2195H; DVD2195L
Regarding B5, in the experiment with Recombinant Human IL-13 [1], the “C-Terminal VD IL13 Neutralization Assay IC50” value is 0.052 nM. For the same molecule, in the experiment with Recombinant Human IL-13 [3], the Kd was 0.014 nM, the koff was 3.7e-05 s⁻¹ and the kon is 2.6e+06 M⁻¹ s⁻¹. In the experiment with Recombinant Human IL-17 [4], the Kd came to 0.002 nM, the koff turned out to be 4.8e-06 s⁻¹ and the kon is 2.4e+06 M⁻¹ s⁻¹. Besides, the “N-Terminal VD IL17 Neutralization Assay IC50” value in the experiment with Recombinant Human IL-17 [2] is 0.0181 nM.

B6: DVD2197 (bispecific antibody)
VH: EVQLVQSGAEVKKPGESVKISCKASGGSFRSYGISWVRQAPGQGLEWMGGITHFFGITDYAQKFQGRVTITADESTTTAYMELSGLTSDDTAVYYCAREPNDFWNGYYDTHDFDSWGQGTTVTVSSASTKGPEVQLVQSGAEVKKPGASVKVSCKASGYTFTSYWMHWVRQAPGQGLEWIGNINPKGGSNIYNEKFQGRVTMTRDTSISTAYMELSRLRSDDTAVYYCARLDYFGDSFDLWGQGTTVTVSS
VL: EIVLTQSPDFQSVTPKEKVTITCRASQNIGSELHWYQQKPDQSPKLLIKYASHSISGVPSRFSGSGSGTDFTLTINGLEAEDAATYYCHQSDTLPHTFGQGTKVDIKRTVAAPDIQMTQSPSSLSASVGDRVTITCRASQGIRNYLNWYQQKPGKAPKLLIYYASNLEVGVPSRFSGSGSGTDYTLTISSLQPEDFATYYCQQDNRFPYTFGGGTKVEIKR
notes: DVD-Ig; also called DVD2197H; DVD2197L
Regarding B6, in the experiment with Recombinant Human IL-13 [1], the “C-Terminal VD IL13 Neutralization Assay IC50” value was 0.081 nM. In addition, in the experiment with Recombinant Human IL-13 [3], the Kd is 0.14 nM, the koff amounted to 4.4e-05 s⁻¹ and the association rate constant (kon) is 310000 M⁻¹ s⁻¹. In the experiment with Recombinant Human IL-17 [4], the Kd came to 0.038 nM, the koff was 6.2e-05 s⁻¹ and the kon worked out at 1.6e+06 M⁻¹ s⁻¹. The “N-Terminal VD IL17 Neutralization Assay IC50” value with Recombinant Human IL-17 [2] was found to be 0.005 nM.

B7: DVD2196 (bispecific antibody)
VH: EVQLVQSGAEVKKPGASVKVSCKASGYTFTSYWMHWVRQAPGQGLEWIGNINPKGGSNIYNEKFQGRVTMTRDTSISTAYMELSRLRSDDTAVYYCARLDYFGDSFDLWGQGTTVTVSSASTKGPEVQLVQSGAEVKKPGESVKISCKASGGSFRSYGISWVRQAPGQGLEWMGGITHFFGITDYAQKFQGRVTITADESTTTAYMELSGLTSDDTAVYYCAREPNDFWNGYYDTHDFDSWGQGTTVTVSS
VL: DIQMTQSPSSLSASVGDRVTITCRASQGIRNYLNWYQQKPGKAPKLLIYYASNLEVGVPSRFSGSGSGTDYTLTISSLQPEDFATYYCQQDNRFPYTFGGGTKVEIKRTVAAPEIVLTQSPDFQSVTPKEKVTITCRASQNIGSELHWYQQKPDQSPKLLIKYASHSISGVPSRFSGSGSGTDFTLTINGLEAEDAATYYCHQSDTLPHTFGQGTKVDIKR
notes: DVD-Ig; also called DVD2196H; DVD2196L
Consider B7, for which the “N-Terminal VD IL13 Neutralization Assay IC50” value with Recombinant Human IL-13 [1] stood at 0.029 nM. Besides, in the experiment with Recombinant Human IL-13 [3], the Kd is 0.029 nM, the dissociation rate constant (koff) turned out to be 6.4e-05 s⁻¹ and the kon was 2.2e+06 M⁻¹ s⁻¹. In the experiment with Recombinant Human IL-17 [4], the Kd was less than 0.0091 nM, the koff was less than 1e-06 s⁻¹ and the kon is 110000 M⁻¹ s⁻¹. Also, the “C-Terminal VD IL17 Neutralization Assay IC50” value with Recombinant Human IL-17 [2] was found to be 0.0551 nM.

Broadly, the Kd is the concentration at which binding is half-saturated. As usually defined, the koff is the first-order rate constant of dissociation. A word on the kon: it is the second-order rate constant of association.

The record behind these values is patent US20130236458A1 (AbbVie / Abbott, published 2013).
